Results taken from patent publication US7186551B1, “3′-phosphoadenosine -5′-phosphosulfate synthetase 2 (PAPSS2) sequence variants” (Mayo Foundation for Medical Education and Research, priority 2001, dated 2007).
Substitutions are numbered along the chain they refer to. Where “and” joins values, the source holds several entries; their conditions need not be identical. Equal values may be shown once.

Columns and labels:
Assay type in all cases: biochemical, human
PAPSS2 [1] = assay: PAPSS2 enzyme activity, coupled radiochemical assay (PAPS generation then SULT1E1-catalyzed sulfation of [3H]estradiol) with COS-1 expressed recombinant allozymes; settings: for % WT activity / decrease in enzyme activity compared with the wild type enzyme: His-tagged recombinant allozyme, loxP-modified p91023(b) vector, COS-1 cells, corrected for transfection efficiency; for activity relative to the reference PAPSS2 (in words): general statement in the description
Text: Variant alleles of the four non-synonymous PAPSS2 cSNPs observed during the resequencing experiments were created using the QuickChange Site-Directed Mutagenesis Kit (Stratagene, La Jolla, Calif.), with wild type PAPSS2 cDNA in pUni as template. The sequence of the pUni insert was confirmed by completely sequencing both strands before recombination with the loxP-modified p91023(b) acceptor vector. pUni donor vectors that contained wild type and variant PAPSS2 cDNAs, as well as empty pUni, then were combined with the loxP-modified p91023(b) acceptor vector to generate the final expression constructs. In all cases, the fusion junctions of resultant expression constructs were sequenced to confirm that the construct was a dimer consisting of only a single donor and a single acceptor vector. These expression constructs were used to transfect COS-1 cells using TransFast™ reagent (Promega) with a 1:1 charge ratio. pSV-β-galactosidase (Promega) was co-transfected with each construct as an internal control to correct for transfection efficiency. Transfected COS-1 cells were harvested after 48 hours and were homogenized with a Polytron homogenizer (Brinkmann Instruments, Westbury, N.Y.) in 25 mM potassium phosphate buffer, pH 7.8, containing 1 mM dithiothreitol (DTT) and 1 mM EDTA. The homogenates were centrifuged at 15,000 g for 15 minutes, and the resultant supernatant preparations were used to perform enzyme assays, substrate kinetic studies and Western blot analyses. In some cases, aliquots of these cytosol preparations were stored at −80° C. prior to assay.
PAPSS2 Enzyme Activity: PAPSS2 activity was measured with a coupled radiochemical assay. See Xu et al., 2001, supra. Briefly, PAPS is generated from ATP and Na2SO4 in a PAPSS2-catalyzed reaction. The generated PAPS is then used as a substrate for the SULT1E1-catalyzed sulfate conjugation of [2,4,6,7-^3H]estradiol, a radioactively labeled sulfate acceptor substrate. The cell homogenate preparations of recombinant PAPSS2 allozymes described above were used for the activity studies without any further purification. The protein concentration of each recombinant protein preparation was determined by the dye-binding method of Bradford with bovine serum albumin (BSA) as a standard.
PAPS synthesis was catalyzed by recombinant wild-type PAPSS2 or PAPSS2 allozymes (present in the cell homogenate preparations described above) in the presence of 1 mM ATP, 16 mM Na2SO4, 1 mM MgCl2, and 2 mM DTT in 60 mM glycine-NaOH buffer, pH 8.6. Blank samples included the same quantity of COS-1 cytosol protein from cells that had been transfected with empty expression vector to make it possible to correct for endogenous activity. Reaction mixtures were incubated at 37° C. for 20 minutes, and then terminated by heating at 100° C. for 1 minute. An aliquot from this PAPS-generating reaction was then added to a second, coupled reaction containing recombinant human SULT1E1 isolated from COS-1 cells transfected with a SULT1E1 expression construct (see Aksoy et al., Biochem. Biophys. Res. Commun., 200:1621–1629 (1994)). The coupled reaction also included 27 nM [2,4,6,7-^3H]estradiol, 8 mM DTT and 1.25 mM MgCl2 in 10 mM potassium phosphate buffer, pH 6.5. The second, SULT1E1-catalyzed reactions were incubated at 37° C. for 20 minutes, and then terminated by the addition of KOH, followed by organic solvent extraction performed with chloroform. Radioactivity of the sulfate conjugated [2,4,6,7-^3H]estradiol in the aqueous phase after organic solvent extraction was then measured in a liquid scintillation counter. PAPSS activities of recombinant PAPSS2 allozymes were compared after correction for transfection efficiency by measuring the activity of cotransfected P-galactosidase. β-Galactosidase activity in the COS-1 cell preparations was measured with the β-Galactosidase Assay System (Promega) as described by the manufacturer. […]

PAPSS2 [2] = assay: as above; settings: non-His-tagged expression vector p91023(b), COS-1 cells, corrected for transfection efficiency
PAPSS2 [3] = assay: Substrate kinetic studies of recombinant PAPSS2 with ATP and Na2SO4
Method: To estimate apparent Km values of PAPSS2 for the two reaction cosubstrates, a series of ATP (0.125–4 mM) and Na2SO4 (0.125–16 mM) concentrations were tested with the recombinant allozymes. When ATP was the varied substrate, the concentration of Na2SO4 was 4 mM, and when Na2SO4 was the varied substrate, the concentration of ATP was 1 mM. Blanks for each substrate concentration were included by assaying COS-1 cell cytosol after transfection with empty vector.
Data Analysis: Apparent Km values were calculated by using the method of Wilkinson with a computer program written by Cleland. Wilkinson, Biochem. J., 80:324–332 (1961); and Cleland, Nature, 198:[…] (1963). Statistical comparisons of data were performed by ANOVA with the StatView program, version 4.5 (Abacus Concepts, Inc., Berkeley, Calif.). Apparent Km, S50 and Vmax values for the wild-type and variant PAPSS2 allozymes were compared by the use of unpaired Student's t-test.
Alterations in amino acid sequence can alter enzyme substrate affinity and/or catalytic efficiency. Decreased activity of the Val291Met allozyme—without a significant alteration in level of enzyme protein—could have resulted from a change in substrate kinetics. Therefore, a series of ATP (0.125–4 mM) and Na2SO4 (0.125–16 mM) concentrations were used to estimate apparent Km values for recombinant wild type PAPSS2 and for the Val291Met variant allozyme. […] ATP concentrations at which 50% maximal velocity was achieved (S50 values) were 0.70 and 0.95 mM for the wild type and variant allozymes, respectively (Table 4). In both cases, the Hill coefficient was greater than 2, […]. In contrast, substrate kinetics of both allozymes for Na2SO4 conformed to Michaelis-Menten predictions (FIG. 5B). […] In summary, decreased activity for the Val1291Met variant appeared to result from an alteration in substrate kinetics, while decreased activity for the Glu10Lys allozyme, in contrast, resulted primarily from a decrease in the quantity of enzyme protein. Because the Val291Met variant was encoded by a construct that contained the most common PAPSS2 nonsynonymous cSNP, these observations could have functional implications for the sulfate conjugation of both endogenous and/or exogenous compounds.

B1: Val291Met: PAPSS2 polypeptide allozyme having a methionine at amino acid 291 in place of valine (adenine at nucleotide 871) (protein)
chain: MSGIKKQKTENQQKSTNVVYQAHHVSRNKRGQVVGTRGGFRGCTVWLTGLSGAGKTTISFALEEYLVSHAIPCYSLDGDNVRHGLNRNLGFSPGDREENIRRIAEVAKLFADAGLVCITSFISPFAKDRENARKIHESAGLPFFEIFVDAPLNICESRDVKGLYKRARAGEIKGFTGIDSDYEKPETPERVLKTNLSTVSDCVHQVVELLQEQNIVPYTIIKDIHELFVPENKLDHVRAEAETLPSLSITKLDLQWVQVLSEGWATPLKGFMREKEYLQVMHFDTLLDDGMINMSIPIVLPVSAEDKTRLEGCSKFVLAHGGRRVAILRDAEFYEHRKEERCSRVWGTTCTKHPHIKMVMESGDWLVGGDLQVLEKIRWNDGLDQYRLTPLELKQKCKEMNADAVFAFQLRNPVHNGHALLMQDTCRRLLERGYKHPVLLLHPLGGWTKDDDVPLDWRMKQHAAVLEEGVLDPKSTIVAIFPSPMLYAGPTEVQWHCRSRMIAGANFYIVGRDPAGMPHPETKKDLYEPTHGGKVLSMAPGLTSVEIIPFRVAAYNKAKKAMDFYDPARHNEFDFISGTRMRKLAREGENPPDGFMAPKAWKVLTDYYRSLEKN
% WT activity (PAPSS2 [1]): 37.1 ± 6.9%
decrease in enzyme activity compared with the wild type enzyme (PAPSS2 [1]): 62.9%
activity relative to the reference PAPSS2 (in words) (PAPSS2 [1]): reduced activity
activity reduced compared with wild type (PAPSS2 [2]): 57.4%
S50 for ATP (ATP concentration at which 50% maximal velocity was achieved) (PAPSS2 [3]; ATP varied 0.125-4 mM, Na2SO4 4 mM): 0.95 mM and 0.95 ± 0.02 mM
Km (PAPSS2 [3]; apparent Km, Na2SO4 varied 0.125-16 mM, ATP 1 mM): 3000 µM
Vmax/S50, ATP (PAPSS2 [3]; ratio, wild type = 100, ATP as varied substrate): 27.8 ± 3.3
Vmax, ATP (PAPSS2 [3]; relative Vmax, wild type = 100, ATP as varied substrate): 37 ± 3.9
Vmax, Na2SO4 (PAPSS2 [3]; relative Vmax, wild type = 100, Na2SO4 as varied substrate): 45 ± 2.4

B2: Glu10Lys: PAPSS2 polypeptide allozyme having a lysine at amino acid residue 10 in place of glutamic acid (adenine at nucleotide 28) (protein)
chain: B1 chain with E10K, M291V
% WT activity (PAPSS2 [1]): 72.6 ± 7.2%
decrease in enzyme activity compared with the wild type enzyme (PAPSS2 [1]): 27.4%
activity relative to the reference PAPSS2 (in words) (PAPSS2 [1]): reduced activity
activity reduced compared with wild type (PAPSS2 [2]): 14.1%

B3: Arg432Lys: PAPSS2 polypeptide allozyme having a lysine at amino acid 432 in place of arginine (adenine at nucleotide 1295) (protein)
chain: B1 chain with M291V, R432K
% WT activity (PAPSS2 [1]): 104.8% and 104.8 ± 10.1%
activity relative to the reference PAPSS2 (in words) (PAPSS2 [1]): activity that is comparable to the reference PAPSS2

B4: Met281Leu: PAPSS2 polypeptide allozyme having a leucine at amino acid residue 281 in place of methionine (thymine at nucleotide 841) (protein)
chain: B1 chain with M281L, M291V
% WT activity (PAPSS2 [1]): 107.7% and 107.7 ± 2.9%
activity relative to the reference PAPSS2 (in words) (PAPSS2 [1]): activity that is comparable to the reference PAPSS2
